In the nanobody polyreactivity screen of Harvey et al. (2022):

Test: yeast display, Sf9 membrane polyspecificity reagent, FACS + sequencing; frameworks hold sequencing errors
Outline: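 Nanobodies from a synthetic yeast display library (Saccharomyces cerevisiae BJ5465), induced 36–48 hours with galactose, were stained 1 hour at 4 °C with 10% biotinylated, detergent-solubilized Sf9 membrane reagent, enriched on streptavidin microbeads, then FACS-sorted. Anti-HA (expression) and streptavidin (reagent binding) fluorescence set low and high (top ~1%) gates. Polyreactivity labels come from the gate of origin. Genes were colony-PCR amplified, MiSeq 2 × 250 sequenced and filtered by CDR length.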

Sequence | polyreactivity (PSR sort gate)
QVQLVESGGGLVQAGGSLRLSCAASGRTFHRYAMGWYRQAPGKERELVAAITSSGGSPNYADSVKGRFTISRDNAKNTVYLQMNSLKPEDTAVYYCATDRYRYTSHPWSRGFDYWGQGTQVTVSS | low polyreactivity
QVQLVESGGGLVQAGGSLRLSCAASGRTFHRYTMGWYRPAPGKERELVAAISRNGGSTYYADSVKGRFTISRDNAKNTVYLQMNSLKPEDTAVYYCNKPYWSDDYYSWGQGTQVTVSS | high polyreactivity
QVQLVESGGGLVQAGGSLRLSCAASGRTFHYNAMGWYRQAPGKERELVAAISFNGGGTYYADSVKGRFTISRDNAKNTVYLQMNSLKPEDTAVYYCATDVPSRYDYWGQGTQVTVSS | low polyreactivity
QVQLVESGGGLVQAGGSLRLSCAASGRTFHYYAMGWYRQAPGKERELVAAITRGGNTYYADSVKGRFTISRDNAKNTVYLQMNSLKPEDTAVYYCAKTAAVNGGYDYWGQGTQVTVSS | high polyreactivity
QVQLVESGGGLVQAGGSLRLSCAASGRTFIANAMGWSRQAPGKERELVAAISWSGGSTYYADSVKGRFTISRDNAKNTVYLQMNSLKPEDTAVYYCTAKRFRTGFDYWGQGTQVTVSS | low polyreactivity
QVQLVESGGGLVQAGGSLRLSCAASGRTFIFYAMGWYRPAPGNVRELVAAITLRGGGTDYADSVKGRFTISRDNAKNTVYLQMTSQQPEETAVYYCNADGYPVPRRFDPYSYLSDYWGQGTQVTVSS | low polyreactivity
QVQLVESGGGLVQAGGSLRLSCAASGRTFIFYAMGWYRQAPGNERELVAAITLRGGGTDYADSVKGRFTISRDNAKYNVYLQMNSQKPEETAVYYCNADGYAVPRWFDPYSYLSDYWGQGTQVTVSS | low polyreactivity
QVQLVESGGGLVQAGGSLRLSCAASGRTFIFYAMGWYRQAPVKERELVAAITYSGTSTYYADSVKGRFTISRDNAKNTVYLQMNSLKPEDTAVYYCAKDGQRDANYYWGQGTQVTVSS | low polyreactivity
QVQLVESGGGLVQAGGSLRLSCAASGRTFIGNALGWYRQAPGKERELVASITRSGGSTYYADSVKGRFTISRDNAKNTVYLQMNSLKPEDTAVYYCAARVYTYYYDLHKRYYWGQGTQVTVSS | high polyreactivity
QVQLVESGGGLVQAGGSLRLSCAASGRTFIGNAMGWYRQAPGKERELVAGIDSDGSTNYADSVKGRFTISRDNAKNTVYLQMNSLKPEDTAVYYCAAVQGYRFYEYYYWGQGTQVTVSS | low polyreactivity
QVQLVESGGGLVQAGGSLRLSCAASGRTFIKYALGSYRQAPGKERELVAAISRNGGSTNYADSVKGRFTISRDNAKNTVYLLMNSLKPEDPAVYYCAAVGTVSRTVGYNYWGQGSQVTVSS | high polyreactivity
QVQLVESGGGLVQAGGSLRLSCAASGRTFILNAMGWYRQAPGKERELVAAISWSGGSTYYADSVKGRFTISRDTAKNTVYLQMNSLKPEDTAVHYCATVRAWIPSGDYEYWGQGTQVTVSS | low polyreactivity
QVQLVESGGGLVQAGGSLRLSCAASGRTFIPYAMGWYRQAPGKERELVAAISTTAGTTYYADSVKGRFTISRDNAKNTVYLQMNSLKPEDTAVYYCAARRRWYRRYGGDFWGQGTQVTVSS | high polyreactivity
QVQLVESGGGLVQAGGSLRLSCAASGRTFIPYAMGWYRQAPGKERELVAAISWSGGGTYYADSVKGRFTISRDNAKNTVYLQMNSLKPEDTAVYYCAAEYWDSYGYWTFDYWGQGTQVTVSS | high polyreactivity
QVQLVESGGGLVQAGGSLRLSCAASGRTFIPYAMGWYRQAPGKERQLVATIRRGGSTYYADSVKGRFTISRDNAKNTVYLQMNSLKPEDTAEYYCAATRYSFGPRRVDYWGQGTQVTVSS | high polyreactivity
QVQLVESGGGLVQAGGSLRLSCAASGRTFIRNAMGWYRQAPGKERELVAAISRSGGRTYYADSVKGRFTISRDNAKNTVYLQMNSLKPEDTAVYYCAAGSYQRYAFDYWGQGTQVTVSS | high polyreactivity

Sequence | polyreactivity (PSR sort gate)
QVQLVESGGGLVQAGGSLRLSCAASGRTFIRNAMGWYRQAPGKERELVASISRRGGSTYYADSVKGRYTISRDNAKNTVYLQMNSLKPEDTAVYYCAKAYAFVTSGLGYDYWGQGTQVTVSS | high polyreactivity
QVQLVESGGGLVQAGGSLRLSCAASGRTFIRYAMGWYRQAPRKEREMVAAISYSGGTTYYADSVKGRFTISRDNAKNTVYLQMNSLKPEDTAVYYCARAGGYPLSRYGYWGQGTQVTVSS | high polyreactivity
QVQLVESGGGLVQAGGSLRLSCAASGRTFIRYCMGWYRQAPGKERELVAAITSRGGRTYYADSVKGRFTISRDNAKNTVYLQMNSLIREDTAVYYCAADTTWYSRYRHLWYRYYYWGQGTQVTVSS | high polyreactivity
QVQLVESGGGLVQAGGSLRLSCAASGRTFISIVMAWYRQAPGKERELVAAIRSSGRTYYADSVKGRFTISRDNAKITVYLQINSLKPVDTAVYYCAAPGGLLGSGYWGQGTLVTVSS | low polyreactivity
QVQLVESGGGLVQAGGSLRLSCAASGRTFIVNTMGWYRQAPGKERELVAAITARGGRTYYADSVKGRFTISRDNAKNTVYLQMNSLIPEDTAVYYCNASTPPREAERYYWGQGTQVTVSS | low polyreactivity
QVQLVESGGGLVQAGGSLRLSCAASGRTFIVYAMGWYRQAPGKERELVAGITRGSTNYADSVKGRFTISRDNAKNTVYLQMNSLKPEDTAVYYCAARSSRRGPISEGDYWGQGTQVTVSS | high polyreactivity
QVQLVESGGGLVQAGGSLRLSCAASGRTFIWYVMGWYRQAPGKERELVATISYGGITYYADSVKRRFTISRDNAKNTVYLQMNSLKPEDTAVYYCAAYKYTHKPHGDYWGQGTQVTVSS | high polyreactivity
QVQLVESGGGLVQAGGSLRLSCAASGRTFIYYAMGWNRQAPGKERELVAGITYSVGSTYYADSVKGRFTISRDNEKNTVYLQMNSLKPEDTAVYYCAADATFESDWGQGTQVTVSS | low polyreactivity
QVQLVESGGGLVQAGGSLRLSCAASGRTFIYYAMGWYRQAPGKERELVAAITYSGTSTYYADAVKGRFTISRDNAKNTVYLQMNSLKPEDTAVYYCAKDGQRDAKYNWGQGTQVTVSS | low polyreactivity
QVQLVESGGGLVQAGGSLRLSCAASGRTFIYYAMGWYRQAPGKERELVASITTGGRTYYADSVKGRFTISRDNAKNTVYLQMNSLKPEDTAGYYCAAVRRIRRPRYGYWGQGTQVTVSS | high polyreactivity
QVQLVESGGGLVQAGGSLRLSCAASGRTFKFNAMGWYRQAPGKERELVAGITWTGSTTSYADSVKGRFTISRDNAKNTVYLQMNSLKPEDTAVYYCDADKIRFWYHGFYYRGQGTQVTVSS | low polyreactivity
QVQLVESGGGLVQAGGSLRLSCAASGRTFKFNTMGWYRQAPGKEREVVAAISWTGAITHYADSVKGRFTISRDNAKNTVYLQMNSLKPEDTAVYYCNSDPYRRIYNYWGQGTQVTVSS | low polyreactivity
QVQLVESGGGLVQAGGSLRLSCAASGRTFKFYAMGWYRQAPGKERELVAAISSSGGRTYYADSVKGRFTISRDNAKNTVYLQMNSLTPEDTAVYYCAAVPGSKFVQKDDYWGQGTQVTVSS | low polyreactivity
QVQLVESGGGLVQAGGSLRLSCAASGRTFKGNAMGWYRPAPGKERELVAVITGSGGSTYYADSVKGRFTISRDNAKNTVYLQMHSLKPEDTAVYYCAKQVRSYVRWEYDYWGQGTQGTVSS | low polyreactivity
QVQLVESGGGLVQAGGSLRLSCAASGRTFKGNAMGWYRQAPGKERELVAAISKSGGRTYYADSVKGRFTISRDNAKNTVYLQMNSLKPEDTAVYYCAAGYYPSSSGDDYWGQGTQVTVSS | high polyreactivity
QVQLVESGGGLVQAGGSLRLSCAASGRTFKGNAMGWYRQAPGKERKLVAVITGSGGSTYYADSVKGRFTISRDNAKNTVYLQMNSLKPEDTAVYYCAAESEPIRIRERDYWGQGTHVTVSS | low polyreactivity
